What was measured:
[1] = parameters: method as in PMID 8257492; details: in vivo; cited from earlier work
[2] = tested on: RXFP-1 receptor; details: serelaxin versus pRLX, similar cellular models; cited from earlier work
[3] = target: T1, RXFP1 relaxin receptor (Homo sapiens, UniProt Q9HBX9); assay: cAMP response by THP-1 cells to intact relaxins; format: cell-based; details: intact peptide 100 ng/mL, 15 min stimulation, IBMX 100 μM, forskolin 10^−4 M as maximum, chemiluminescent HitHunterXP cAMP II assay, triplicate points, two independent experiments
T1 construct: a marked, significant rise of cAMP in RXFP-1-expressing THP-1 cells; endogenous in cells; host or cells: THP-1 human monocytic cells (ECACC)
T1 sequence (Q9HBX9 1-757): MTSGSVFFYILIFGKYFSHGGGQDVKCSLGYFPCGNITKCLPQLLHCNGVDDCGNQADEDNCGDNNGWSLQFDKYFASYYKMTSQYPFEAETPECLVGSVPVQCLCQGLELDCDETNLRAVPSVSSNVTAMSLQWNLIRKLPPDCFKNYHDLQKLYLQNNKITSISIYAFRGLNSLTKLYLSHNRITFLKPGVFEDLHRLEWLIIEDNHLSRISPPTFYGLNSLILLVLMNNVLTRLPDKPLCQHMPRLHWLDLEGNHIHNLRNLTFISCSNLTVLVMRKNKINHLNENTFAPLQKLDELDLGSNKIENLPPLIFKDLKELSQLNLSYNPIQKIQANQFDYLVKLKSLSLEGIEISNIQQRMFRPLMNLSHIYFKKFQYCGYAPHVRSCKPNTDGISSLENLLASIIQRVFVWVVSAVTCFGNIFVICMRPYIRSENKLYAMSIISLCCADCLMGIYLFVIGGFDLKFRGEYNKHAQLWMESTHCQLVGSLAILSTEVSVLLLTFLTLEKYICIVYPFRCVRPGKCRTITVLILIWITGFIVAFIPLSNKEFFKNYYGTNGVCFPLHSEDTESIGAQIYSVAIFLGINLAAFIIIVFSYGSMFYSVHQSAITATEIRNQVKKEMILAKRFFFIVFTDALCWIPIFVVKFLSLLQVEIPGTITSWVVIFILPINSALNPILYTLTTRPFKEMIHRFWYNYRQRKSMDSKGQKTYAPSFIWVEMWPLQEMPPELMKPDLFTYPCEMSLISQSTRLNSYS
Method: Human monocytic THP-1 cells (European Collection of Cell Cultures ECACC, Salisbury, UK) were cultured in suspension in RPMI medium containing 10% fetal calf serum, 250 U/mL penicillin G and 250 μg/mL streptomycin in a 5% CO2 atmosphere at 37 °C. Aliquots containing 6 × 10^5 THP-1 cells in 1 mL PBS were placed in a 24-well plate, added with IBMX (100 μM) to prevent cAMP catabolism, and then incubated with intact serelaxin (100 ng/mL), pRLX (100 ng/mL) or equivalent solutions of their digestion by-products. According to previous studies, cAMP assay was carried out 15 min after addition of the stimuli, i.e., in the midst of the second, sustained cAMP surge upon RXFP1 stimulation. Measurements of cAMP were determined by the chemiluminescent HitHunterXP™ cAMP II assay (DiscoverX, Birmingham, UK). The standard curve was performed in duplicate, and the experimental points in triplicate. Since the standard curve was sigmoidal, nonlinear regression was used to extrapolate unknown experimental cAMP values, expressed as nmol/L, according to the manufacturer’s instructions. Two independent experiments were performed. For positive control, the adenylate cyclase activator forskolin (10^−4 M) was used. Finally, the values of cAMP in each experimental sample were normalized by the amount of proteins, measured by the micro-BCATM Protein Assay Kit (Pierce, IL, USA) method, and expressed as mg/mL.

[4] = target: T1, RXFP1 relaxin receptor; assay: cAMP response by THP-1 cells to SIF digestion products; format: cell-based; details: SIF: pancreatin 500 μg/mL, CaCl2, pH 7, 37 °C, peptide 1.12 μM; digestion products tested at equivalent of 100 ng/mL on THP-1 cells, 15 min; read-out cAMP
Method: The effects of duodenal enzyme digestion on the noted serelaxin and pRLX preparations was carried out by addition of a simulated intestinal fluid (SIF), composed of a solution of pancreatin (500 μg/mL), CaCl2 0.75 M (0.1 v/v), pH adjusted to 7 adding dropwise an aqueous solution of NaOH 0.1 M to pRLX and serelaxin solutions. In particular: 0.5 mg/mL aqueous solution of pRLX (MW 5918, 0.084 mM) was added to SIF in a 50 mL Falcon, mixing in a 37 °C bath, to a final pRLX concentration 1.12 μM; 0.2 mL of this solution were sampled and quenched by pH adjusting (0.1 M HCl), at the following times: t = 0”/10”/20”/30”/60”/120”/600”/1800”. […]
Human monocytic THP-1 cells (European Collection of Cell Cultures ECACC, Salisbury, UK) were cultured in suspension in RPMI medium containing 10% fetal calf serum, 250 U/mL penicillin G and 250 μg/mL streptomycin in a 5% CO2 atmosphere at 37 °C. […] Measurements of cAMP were determined by the chemiluminescent HitHunterXP™ cAMP II assay (DiscoverX, Birmingham, UK). […] Since the standard curve was sigmoidal, nonlinear regression was used to extrapolate unknown experimental cAMP values, expressed as nmol/L, according to the manufacturer’s instructions. […] Finally, the values of cAMP in each experimental sample were normalized by the amount of proteins, measured by the micro-BCATM Protein Assay Kit (Pierce, IL, USA) method, and expressed as mg/mL.

[5] = tested on: acute heart failure patients; parameters: method as in PMID 31433919, PMID 31886953; details: IV infusion 30 μg/kg/day; cited from earlier work

Question: What does the source list for serelaxin?
Answer: half-life [1]: about 2 h; affinity for the RXFP-1 receptor relative to the other relaxin [2]: higher affinity; intracellular cAMP increase as % of the maximal cAMP surge induced by forskolin [3]: 88.6%; SIF exposure time at which cAMP levels dropped down to levels of unstimulated control cells [4]: 120 s; SIF exposure time at which the decrease in cAMP production became fully manifest and statistically significant [4]: 60 s; effects on length of hospitalization, occurrence of cardiovascular death, and disease relapses requiring re-hospitalization in comparison with placebo [5]: no substantial effects

From PMC9820531, “Porcine Relaxin but Not Serelaxin Shows Residual Bioactivity after In Vitro Simulated Intestinal Digestion—Clues for the Development of New Relaxin Peptide Agonists Suitable for Oral Delivery” (International Journal of Molecular Sciences, 2022)
